The source of these data is PMC3820547 (2013).

B2: Replication Protein A (Q9V1Z1, Q9V1Y9, Q9V1Z0), His-tagged RPA complex (complex)
chain 1: MVNVKNRNILRYSKVVDMTVLTKDRIIEIIERKTGMSREEIEEEIRKIMEEDPYLSEQGAAALLAERLGIDLIEKEEVSLMRISELYPGMDPREVNVVGRVLKKYPPREYTRKDGSVGRVASLIIYDDSGRARVVLWDAKVSEYYNKIEVGDVIKVLDAQVKESLSGLPELHINFRARIILNPDDPRVEMIPPLEEVRVATYTRKKIKDIEAGDRFVEVRGTIAKVYRVLTYDACPECKKKVDYDEGLGVWICPEHGEVQPIKMTILDFGLDDGTGYIRVTLFGDDAEELLGVSPEEIAEKIKELEESGLTTKEAARKLAEDEFYNIIGREIVVRGNVIEDRFLGLILRASSWEDVDYRREIERIKEELEKLGVM
chain 2: MVIEMKKRMPATRLYIKDILEGYFVKSEGDFEPNYLITKYARKVYRAKIVGTVVREPLIAEDETYGKFQVDDGTGVIWVLGFRDDTKFAKLVRKGDLVQVIGKIAEWRDDKQILVEGVSKVHPNMWILHRYETLKEKIEHIKKAKIALEIYNQYGITAKSKVIAKNKGIEEELLEVIDELYGIMMEERSIEEPMEELLEEEIPEEKEENELLEKAKEDILNILRQKRTAISRKYILKKLGDKYDEETIDDAITELLAQGEIYEPETGYYKLL
chain 3: MEVQVRRRKPAVERKISEIREEDTRVSLIGRVIKVDKMDYMFWLDDGTGVAIIESESDLPKVGQVVRVIGRIIRNEEGIHIYAEVIQDFSDADLEALEEIRELERKLLPRLEGEIVW

Test in all cases: SPR; RPA bound to 32mer ssDNA
The target in test [1] is B2.
The target in test [2] is B2.
In test [3] the target is T1, DNA Polymerase D (Q9V2F3, Q9V2F4), HIS-tagged complex (Pyrococcus abyssi, UniProt Q9V2F3 1-619; Q9V2F4 1-1455).
The target of test [4] is T1, DNA Polymerase D (Q9V2F3, Q9V2F4), …. This is another data set of the same source.

B1: Primase small subunit P41 (Q9V292), HIS-tagged (natural protein)
chain: MLLREVTKEERKEFYSNEWNAKQIPDFILQNLDKREFGFDHTGEGPSDRKNSYTDVRDLEDYIKATAPYAVYSSVAFYEKPQEMEGWLGAELVFDIDAKDLPLRRCNHEPGKVCPICLNDAKEIARDTLIVLKEELGFEDVHVVYSGRGYHIRVMDGWALSLDSKSRERILSFISASEIEDHSEFRKMLLERRGWFVLNHGYPRVFRLRFGYFILRVKVEHLINFGIRKNIAKRILDNKETIYEEFVRKGILAAFPDGVGIESLAKLFALSTRFSKAYFDGRVTVDLKRILRLPSTLHSKVGLIAKYIGNNERDVMRFNPFKHAVPKFRRKEVKEEYKRFLEENF
The molecule B1 registered an off-rate (koff) in test [1] of 0.000454 s⁻¹. In test [2], this molecule displayed a Kd of 52 nM.
In test [3], B2 registered a koff of 0.000202 s⁻¹. Binding in test [4] was characterised by a dissociation constant (Kd) of 51 nM.
